Source: article PMC3230378 (The EMBO Journal, 2011)

T1: mouse NGL3_(LRR–Ig) (mouse, UniProt P0C192 39-455)
T1 sequence (looked up): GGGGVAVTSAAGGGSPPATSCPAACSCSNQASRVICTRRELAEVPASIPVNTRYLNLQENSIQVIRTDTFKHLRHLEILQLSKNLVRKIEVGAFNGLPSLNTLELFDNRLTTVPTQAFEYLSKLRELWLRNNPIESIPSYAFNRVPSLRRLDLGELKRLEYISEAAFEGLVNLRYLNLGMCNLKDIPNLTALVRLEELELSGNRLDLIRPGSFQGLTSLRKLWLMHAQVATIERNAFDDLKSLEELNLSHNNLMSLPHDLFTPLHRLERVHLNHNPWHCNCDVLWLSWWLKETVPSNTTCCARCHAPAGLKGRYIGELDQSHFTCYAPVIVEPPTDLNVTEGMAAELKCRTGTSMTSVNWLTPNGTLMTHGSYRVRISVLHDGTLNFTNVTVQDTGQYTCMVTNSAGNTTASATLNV

B1: human NetrinG2_(Lam–EGF1), wild type (domain or fragment, UniProt Q96CW9 18-345, looked up)
chain: DYDICKSWVTTDEGPTWEFYACQPKVMRLKDYVKVKVEPSGITCGDPPERFCSHENPYLCSNECDASNPDLAHPPRLMFDKEEEGLATYWQSITWSRYPSPLEANITLSWNKTVELTDDVVMTFEYGRPTVMVLEKSLDNGRTWQPYQFYAEDCMEAFGMSARRARDMSSSSAHRVLCTEEYSRWAGSKKEKHVRFEVRDRFAIFAGPDLRNMDNLYTRLESAKGLKEFFTLTDLRMRLLRPALGGTYVQRENLYKYFYAISNIEVIGRCKCNLHANLCSMREGSLQCECEHNTTGPDCGKCKKNFRTRSWRAGSYLPLPHGSPNACA

Tests used:
Experiment in all cases: SPR
[1] = biological target: NGL1-r1 mutant (human NGL1_(LRR–Ig) with the loop I binding region of NGL2) (human) (UniProt Q9HCJ2)
[2] = biological target: mouse NGL3_(LRR–Ig) (mouse) (UniProt P0C192)
mouse NGL3_(LRR–Ig) = biological target: T1, mouse NGL3_(LRR–Ig)

Row | Molecule | fold decrease of binding against WT NGL1 [1] | Kd [2] | Kd (mouse NGL3_(LRR–Ig))
1 | human NetrinG1_(Lam–EGF1/4), wild type (domain or fragment) | > 10 fold | > 100 µM | –
2 | B1 | – | – | > 100 µM
